Measurements published in US20200206304A1, “METHODS AND COMPOSITIONS FOR EFFICIENT DELIVERY THROUGH MULTIPLE BIO BARRIERS” (Cedars-Sinai Medical Center, priority 2017, published 2020).
Like-named read-outs stand apart in the source and are kept apart here.

What was measured:
Brain (other hemisphere) = settings: 2 h, PBS background subtracted
[1] = Zeta potential measurements (Zetasizer Nano ZS90); assay type: physicochemical; settings: in PBS; voltage 150 mV
Procedure: Zeta Potential Measurements: Synthesized conjugates were characterized with respect to their ζ potential using a Zetasizer Nano ZS90 (Malvern Instruments, Malvern, UK). Ten microliter aliquots of nanoconjugate samples were diluted in 0.99 mL PBS, and the voltage applied was 150 mV. Data represent the mean of three measurements±their standard deviation.

[2] = not given; remark: listed apart in the source
[3] = Dynamic light scattering, hydrodynamic diameter and PDI; assay type: physicochemical; settings: DLS in PBS, conjugates without attached rhodamine
Procedure: Dynamic Light Scattering: Synthesized conjugates were characterized using a Zetasizer Nano ZS90 (Malvern Instruments, Malvern, UK). Ten microliter aliquots of nanoconjugate samples were diluted in 0.99 mL PBS and were measured 3 times using a clear cuvette. Data represent the mean of three measurements and polydispersity index.

brain parenchyma = tested on: brain parenchyma
Procedure: To determine how nanoconjugate-associated fluorescence relates to the anatomy of the vasculature, the distance of each analyzed ROI was manually measured from the nearest blood vessel wall (using line tool in FIJI). For tumor bearing mice, 5 images per tumor tissue and 5 per brain tissue were analyzed for each mouse. Intensity values were then plotted against the location of the blood vessel wall and summarized in scatterplots (e.g., FIG. 14B).
Drug concentrations are listed with regard to total nanoconjugate content systemically injected. […] Referring to FIG. 14B, fluorescence measurements were obtained from 10 μm^2-sized regions of interest (ROI) that were randomly overlaid on regions devoid of vasculature shown as yellow squares on photograph 1 of FIG. 14A. Intensity measurements and positions were then obtained for each ROI and plotted against the location of the nearest blood vessel wall. FIG. 14C is set of charts: chart 1—Cortex; chart 2—Midbrain and chart 3 Hippocampus, illustrating average nanoconjugate fluorescence in the brain parenchyma measured following injections at four different drug concentrations. In this figure, fluorescence is shown as relative fluorescence, which is the measured nanoconjugate fluorescence after subtraction of autofluorescence imaged from PBS injected animals using similar acquisition settings.
FIG. 14B explores this relationship in a plot from all of the measurements (for each condition: 4 mice, 3-4 sections with 20 random measurements each). All fluorescence intensity measurements were conducted with 10 μm^2-sized regions of interest placed outside of tomato-lectin stained blood vessels (ROI as in Photograph 1 of FIG. 14A); the positions of these ROIs were then measured against the location of the nearest blood vessel wall to produce the scatterplot in FIG. 14B.
The resulting data were used as a metric to examine how well the mini nanodrug was able to travel from the vessels into the surrounding parenchyma and encounter brain cells. […] Nanoconjugate diffused fluorescence intensity vs. ‘distance from vasculature’ measurements in brain parenchyma of mice injected with nanoconjugates at a dose of 0.274 μmol/Kg. Fluorescence measurements were obtained from […] regions of interest (ROI) that were randomly overlaid on regions devoid of vasculature (shown by yellow squares in FIG. 22A). Intensity measurements and positions were then obtained for each ROI and plotted against the location of the nearest blood vessel wall.

## PMLA/LLL/AP2/rhodamine [P/LLL/AP2]
Brain (other hemisphere); dose 1X
  Brain (other hemisphere) fluorescence: 2.1
Brain (other hemisphere); dose 4X
  Brain (other hemisphere) fluorescence: 9.4
[1]
  ζ potential: −11.6 mV
0.068 μmol/kg injection
  serum concentration at 120 minutes: 0.115 mol/mL
  serum drug concentration at 120 minutes post injection: 0.115 µmol/mL
i.v. 0.068 μmol/kg, single exponential decay fit
  serum half-life: 76.7 min
[2]; cortex, 120 min, 0.068 μmol/kg injection
  estimated parenchyma concentration: 0.049 ± 0.001 µmol/mL
[2]; within 120 minutes after i.v. administration
  percentage of free serum drug detected in the brain: ≥ 40%
[3]
  Hydrodynamic diameter (volume mode): 4.45 nm
  PDI: (0.39)
[3]; listed as P/LLL/AP-2
  PDI: 0.39
Brain parenchyma; 0.274 μmol/kg, 120 min
  fluorescence intensity decrease (slope), linear regression vs distance from vessel: −0.272±0.07
  γ-intercept of linear regression, fluorescence vs distance: 17.49±0.8
Brain parenchyma; 0.068 mol/kg, 120 min
  γ-intercept of linear regression, fluorescence vs distance: 6.342±0.34
Brain parenchyma; cortex, 0.274 μmol/Kg
  cortex Y intercepts of fluorescence vs distance curves (exponential fits): 14.7
